Results: patent US20110263454A1, “Methods of Identifying Functional Characteristics of Promoters, Transcription Modifying Proteins and Transcription Modulating Agents” (Salk Institute for Biological Studies, priority 2008, published 2011)

Key:
[1] = system: mLeptin promoter; test: NHR-promoter luciferase screen, mLeptin promoter; assay type: cell-based, mouse; conditions: for Luc. act., normalized to lacZ / Normalized Luc. act., normalized to control: Table 7, mLeptin; for Results of assays of transcription factor (+/- ligand) with mLeptin: Table 6d, luciferase activity relative to control (control = 1.00)
How it was run: (§1)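 CV-1 cells were co-transfected with 50 ng NHR (homodimer or NHR/RXR heterodimer), 100 ng promoter-luciferase construct and 50 ng LacZ. Luciferase was normalized to LacZ and to a no-NHR/no-ligand control.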

[2] = system: mPOMC promoter; test: NHR-promoter luciferase screen, mPOMC promoter; assay type: cell-based, mouse; conditions: for Results of assays of transcription factor (+/- ligand) with mPOMC: Table 6d, luciferase activity relative to control (control = 1.00); for Luc. act., normalized to lacZ / Normalized Luc. act., normalized to control: mPOMC promoter, HR component with or without ligand; for Normalized Luc. act., normalized to control: relative to control
How it was run: as §1

[3] = system: RevErba promoter; test: NHR-promoter luciferase screen, RevErba (RVRa) promoter; assay type: cell-based; parameters: key to mRevErba promoter reporter activity / Normalized Luc. act., normalized to control: luciferase activity normalized to lacZ and to control (no NHR/ligand); conditions: for Luc. act., normalized to lacZ / Normalized Luc. act., normalized to control / normalized Luc. act. on a logarithmic scale (column without head, Table 33) / negative reciprocal of normalized Luc. act. (fold repression; Table 33): RVRa promoter; for Luc. act., normalized to lacZ / Normalized Luc. act., normalized to control: HR component without or with ligand; for normalized Luc. act. on a logarithmic scale (column without head, Table 33): log10 of activity normalized to control; for mRevErba promoter reporter activity: transcription factor +/- ligand, control = 1.00; for negative reciprocal of normalized Luc. act. (fold repression; Table 33): given only where activity is below control
How it was run: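 CV-1 cells co-transfected with NHR (pcDNA3.1, C-terminal V5H6 tag) as homodimer or RXR heterodimer, RevErbα promoter–luciferase reporter and LacZ transfection control; ligand added where applicable. Luciferase normalized to LacZ and to no-NHR/no-ligand control.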

[4] = system: hMDR1 promoter; test: NHR-promoter luciferase screen, hMDR1 promoter; assay type: cell-based, human; conditions: for Luc. act., normalized to lacZ / Normalized Luc. act., normalized to control: MDR1 promoter, HR/ligand component; for hMDR1 promoter reporter activity: transcription factor +/- ligand, control = 1.00
How it was run: as §1

[5] = system: Bmal1 promoter; test: NHR-promoter luciferase screen, Bmal1 promoter; assay type: cell-based, mouse; conditions: for Luc. act., normalized to lacZ / Normalized Luc. act., normalized to control: Bmal1 promoter, HR component without or with ligand; for mBmal1 promoter reporter activity: transcription factor +/- ligand, control = 1.00
How it was run: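 CV-1 cells co-transfected with 50 ng NHR (V5H6-tagged, pcDNA3.1; homodimer or RXR heterodimer), 100 ng Bmal1 promoter-luciferase and 50 ng LacZ. Luciferase was normalized to LacZ and to a no-NHR/ligand control.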

B1: ERR2: Estrogen Related Receptor β (NR3B2, ERRb), cDNA driver (protein, UniProt O95718 1-433, looked up)
Steroid hormone receptor ERR2: MSSDDRHLGSSCGSFIKTEPSSPSSGIDALSHHSPSGSSDASGGFGLALGTHANGLDSPPMFAGAGLGGTPCRKSYEDCASGIMEDSAIKCEYMLNAIPKRLCLVCGDIASGYHYGVASCEACKAFFKRTIQGNIEYSCPATNECEITKRRRKSCQACRFMKCLKVGMLKEGVRLDRVRGGRQKYKRRLDSESSPYLSLQISPPAKKPLTKIVSYLLVAEPDKLYAMPPPGMPEGDIKALTTLCDLADRELVVIIGWAKHIPGFSSLSLGDQMSLLQSAWMEILILGIVYRSLPYDDKLVYAEDYIMDEEHSRLAGLLELYRAILQLVRRYKKLKVEKEEFVTLKALALANSDSMYIEDLEAVQKLQDLLHEALQDYELSQRHEEPWRTGKLLLTLPLLRQTAAKAVQHFYSVKLQGKVPMHKLFLEMLEAKV
Luc. act., normalized to lacZ [1]: 9.7
Normalized Luc. act., normalized to control [1]: 3.3
Results of assays of transcription factor (+/- ligand) with mLeptin [1]: 3.30
luciferase/LacZ, mLeptin (selected results) ([1]; mLeptin promoter-luciferase, NHR +/- ligand, control = 1.0): 3.3
Results of assays of transcription factor (+/- ligand) with mPOMC [2]: 1.57
Luc. act., normalized to lacZ [2]: 108.6
Normalized Luc. act., normalized to control [2]: 1.6
Luc. act., normalized to lacZ [3]: 42.3
Normalized Luc. act., normalized to control [3]: 1.5
normalized Luc. act. on a logarithmic scale (column without head, Table 33) [3]: 0.18
mRevErba promoter reporter activity [3]: 1.51
Luc. act., normalized to lacZ [4]: 0.4
Normalized Luc. act., normalized to control [4]: 1.2
hMDR1 promoter reporter activity [4]: 1.20
Luc. act., normalized to lacZ [5]: 10.6
Normalized Luc. act., normalized to control [5]: 0.7
mBmal1 promoter reporter activity [5]: 0.68

B2: CTF2: COUP-TF2 (NR2F2), cDNA driver (protein, UniProt P24468 1-414, looked up)
COUP transcription factor 2: MAMVVSTWRDPQDEVPGSQGSQASQAPPVPGPPPGAPHTPQTPGQGGPASTPAQTAAGGQGGPGGPGSDKQQQQQHIECVVCGDKSSGKHYGQFTCEGCKSFFKRSVRRNLSYTCRANRNCPIDQHHRNQCQYCRLKKCLKVGMRREAVQRGRMPPTQPTHGQFALTNGDPLNCHSYLSGYISLLLRAEPYPTSRFGSQCMQPNNIMGIENICELAARMLFSAVEWARNIPFFPDLQITDQVALLRLTWSELFVLNAAQCSMPLHVAPLLAAAGLHASPMSADRVVAFMDHIRIFQEQVEKLKALHVDSAEYSCLKAIVLFTSDACGLSDVAHVESLQEKSQCALEEYVRSQYPNQPTRFGKLLLRLPSLRTVSSSVIEQLFFVRLVGKTPIETLIRDMLLSGSSFNWPYMAIQ
Luc. act., normalized to lacZ [1]: 3.8
Normalized Luc. act., normalized to control [1]: 1.3
Results of assays of transcription factor (+/- ligand) with mLeptin [1]: 1.31
Results of assays of transcription factor (+/- ligand) with mPOMC [2]: 0.94
Luc. act., normalized to lacZ [2]: 64.6
Normalized Luc. act., normalized to control [2]: 0.9
Luc. act., normalized to lacZ [3]: 27.2
Normalized Luc. act., normalized to control [3]: 1.0
negative reciprocal of normalized Luc. act. (fold repression; Table 33) [3]: −1.027
normalized Luc. act. on a logarithmic scale (column without head, Table 33) [3]: −0.01
mRevErba promoter reporter activity [3]: 0.97
Luc. act., normalized to lacZ [4]: 0.3
Normalized Luc. act., normalized to control [4]: 1.0
hMDR1 promoter reporter activity [4]: 1.01
Luc. act., normalized to lacZ [5]: 29.5
Normalized Luc. act., normalized to control [5]: 1.9
mBmal1 promoter reporter activity [5]: 1.89

B3: ERR3: Estrogen Related Receptor γ (NR3B3, ERRg), cDNA driver (protein, UniProt P62508 1-458, looked up)
Estrogen-related receptor …: MDSVELCLPESFSLHYEEELLCRMSNKDRHIDSSCSSFIKTEPSSPASLTDSVNHHSPGGSSDASGSYSSTMNGHQNGLDSPPLYPSAPILGGSGPVRKLYDDCSSTIVEDPQTKCEYMLNSMPKRLCLVCGDIASGYHYGVASCEACKAFFKRTIQGNIEYSCPATNECEITKRRRKSCQACRFMKCLKVGMLKEGVRLDRVRGGRQKYKRRIDAENSPYLNPQLVQPAKKPYNKIVSHLLVAEPEKIYAMPDPTVPDSDIKALTTLCDLADRELVVIIGWAKHIPGFSTLSLADQMSLLQSAWMEILILGVVYRSLSFEDELVYADDYIMDEDQSKLAGLLDLNNAILQLVKKYKSMKLEKEEFVTLKAIALANSDSMHIEDVEAVQKLQDVLHEALQDYEAGQHMEDPRRAGKMLMTLPLLRQTSTKAVQHFYNIKLEGKVPMHKLFLEMLEAKV
Luc. act., normalized to lacZ [1]: 2.4
Normalized Luc. act., normalized to control [1]: 0.8
Results of assays of transcription factor (+/- ligand) with mLeptin [1]: 0.80
Results of assays of transcription factor (+/- ligand) with mPOMC [2]: 2.02
Luc. act., normalized to lacZ [2]: 139.4
Normalized Luc. act., normalized to control [2]: 2.0
Luc. act., normalized to lacZ [3]: 123.1
Normalized Luc. act., normalized to control [3]: 4.4
normalized Luc. act. on a logarithmic scale (column without head, Table 33) [3]: 0.64
mRevErba promoter reporter activity [3]: 4.40
Luc. act., normalized to lacZ [4]: 0.2
Normalized Luc. act., normalized to control [4]: 0.8
hMDR1 promoter reporter activity [4]: 0.79
Luc. act., normalized to lacZ [5]: 9.5
Normalized Luc. act., normalized to control [5]: 0.6
mBmal1 promoter reporter activity [5]: 0.61

B4: CTF3: COUP-TF3 (NR2F6), cDNA driver (protein, UniProt P10588 1-404, looked up)
Nuclear receptor subfamily 2 …: MAMVTGGWGGPGGDTNGVDKAGGYPRAAEDDSASPPGAASDAEPGDEERPGLQVDCVVCGDKSSGKHYGVFTCEGCKSFFKRSIRRNLSYTCRSNRDCQIDQHHRNQCQYCRLKKCFRVGMRKEAVQRGRIPHSLPGAVAASSGSPPGSALAAVASGGDLFPGQPVSELIAQLLRAEPYPAAAGRFGAGGGAAGAVLGIDNVCELAARLLFSTVEWARHAPFFPELPVADQVALLRLSWSELFVLNAAQAALPLHTAPLLAAAGLHAAPMAAERAVAFMDQVRAFQEQVDKLGRLQVDSAEYGCLKAIALFTPDACGLSDPAHVESLQEKAQVALTEYVRAQYPSQPQRFGRLLLRLPALRAVPASLISQLFFMRLVGKTPIETLIRDMLLSGSTFNWPYGSGQ
Luc. act., normalized to lacZ [1]: 2.7
Normalized Luc. act., normalized to control [1]: 0.9
Results of assays of transcription factor (+/- ligand) with mLeptin [1]: 0.92
Results of assays of transcription factor (+/- ligand) with mPOMC [2]: 0.75
Luc. act., normalized to lacZ [2]: 51.8
Normalized Luc. act., normalized to control [2]: 0.8
Luc. act., normalized to lacZ [3]: 19.1
Normalized Luc. act., normalized to control [3]: 0.7
negative reciprocal of normalized Luc. act. (fold repression; Table 33) [3]: −1.467
normalized Luc. act. on a logarithmic scale (column without head, Table 33) [3]: −0.17
mRevErba promoter reporter activity [3]: 0.68
Luc. act., normalized to lacZ [4]: 0.4
Normalized Luc. act., normalized to control [4]: 1.4
hMDR1 promoter reporter activity [4]: 1.36
Luc. act., normalized to lacZ [5]: 21.2
Normalized Luc. act., normalized to control [5]: 1.4
mBmal1 promoter reporter activity [5]: 1.35

B5: CTF1: COUP-TF1 (NR2F1), cDNA driver (protein, UniProt P10589 1-423, looked up)
COUP transcription factor 1: MAMVVSSWRDPQDDVAGGNPGGPNPAAQAARGGGGGAGEQQQQAGSGAPHTPQTPGQPGAPATPGTAGDKGQGPPGSGQSQQHIECVVCGDKSSGKHYGQFTCEGCKSFFKRSVRRNLTYTCRANRNCPIDQHHRNQCQYCRLKKCLKVGMRREAVQRGRMPPTQPNPGQYALTNGDPLNGHCYLSGYISLLLRAEPYPTSRYGSQCMQPNNIMGIENICELAARLLFSAVEWARNIPFFPDLQITDQVSLLRLTWSELFVLNAAQCSMPLHVAPLLAAAGLHASPMSADRVVAFMDHIRIFQEQVEKLKALHVDSAEYSCLKAIVLFTSDACGLSDAAHIESLQEKSQCALEEYVRSQYPNQPSRFGKLLLRLPSLRTVSSSVIEQLFFVRLVGKTPIETLIRDMLLSGSSFNWPYMSIQCS
Luc. act., normalized to lacZ [1]: 3.1
Normalized Luc. act., normalized to control [1]: 1.1
Results of assays of transcription factor (+/- ligand) with mLeptin [1]: 1.07
Results of assays of transcription factor (+/- ligand) with mPOMC [2]: 0.73
Luc. act., normalized to lacZ [2]: 50.0
Normalized Luc. act., normalized to control [2]: 0.7
Luc. act., normalized to lacZ [3]: 18.5
Normalized Luc. act., normalized to control [3]: 0.7
negative reciprocal of normalized Luc. act. (fold repression; Table 33) [3]: −1.51
normalized Luc. act. on a logarithmic scale (column without head, Table 33) [3]: −0.18
mRevErba promoter reporter activity [3]: 0.66
Luc. act., normalized to lacZ [4]: 0.3
Normalized Luc. act., normalized to control [4]: 0.9
hMDR1 promoter reporter activity [4]: 0.92
Luc. act., normalized to lacZ [5]: 26.1
Normalized Luc. act., normalized to control [5]: 1.7
mBmal1 promoter reporter activity [5]: 1.67
